Results reported in the DeepSol protein solubility set.

Experiment: soluble on expression in E. coli; label from the status in PepcDB or PDB records

| Sequence | soluble on expression in E. coli |
| --- | --- |
| MSLPSEISDKATVPIEIGLTAAIVAIEANQPMILTASGDGGGSLAGLPYGPFDAITHRTLEIGLRAWVEEQTGLRLGYVEQLYTFGDRGRHARLGDTEVHVASIGYLALTRAADNAARAAGATFEPWYRFFPWEDWREQQPAIIARDIIPELTAWAAQAEEPGMARALARKDRVRLFFGVDGAPWDEERVLDRYELLYEAGLIEEARRDGRPAALSRSKAPTLGVAMRFDHRRILATAIARLRAKLKYRPVVFELLPPEFTLTELQHTVEAISGRHLHKQNFRRLVEAGALVEPTGEM | not soluble |
| MSLQEGEFEPTWESLQNYKVPEWFRNAKFGIWAHWGPQCVEGSGDWMARSLYLEGSREYKHHVEHYGHPSEVGFKDILPLFKAEKWDPDKLVSFYKKIGAQYFFALGNHHDNYDLWDSQYQEWNSVNIGPKKDILAGWAEAAKKNGLPFGISFHADHAWSWYEPAQRYDRHGEKAGVPYDGCLTKEDGKGKWWEGYDPQKLYAQNHPLSAGSWADGMIHRQWAWGNGVCIPTQEYVTNFYDRTVDAINRYNPDLIYFDVTGVPFYPISDAGLKIAAHFYNHNMVVRKGDFSAVMFGKILTDEQRKALVWDVERGSPNSIYEEPWQTCSCLGGWHYDTRLAENGWYKSASDVVKLLVDVVSKNGNLLLSVPLRADGTFDEKEEAILNEFGNWMSMNKEAIYDTRPWKVFGEGPIANADIKINAQGFNEGAYTKATASEIRFTQTKKYLYATVLAWPEEKQVVIQSLATGSELYPDKITKIELLGYGKVSFTRTAQGVVIDMPDVQLNKIAPVFKIKKEGHHHHHH | soluble |
| MSLQGIHTISFVGLGLIGASLMQALKRAAGATGRNIEMIGFDPAFDAADIVAITGECGLDRFEPDPAKLYNADLVVLCAPVVTNIALLDEAKRHIRKDTLVSDVSSTKAEIAAKAQELGIEFIGMHPIAGREQQGYQAASPELLDGRLVILCTECATLETTLATELAGLLRAAGCKPLFMSPEEHDRVYANISHLPQLISTALMAHCRENVEWAGPGFASMARLAGSPWAVWRDIVETNRSNIADEMEAFSALLADVAGEVRGGNFEALESKFREANDLYQRLQERSSEGHHHHHH | soluble |
| MSLQHACIFLELLKITYIHCMKRLLSLYLVLSGFLLHAQTVKELKTVASSFSEMAKIPAGSFLKHEYSFLNIQPTKQDTNLLFCIHPEATITKVTTSFYISTHEVTNAEYRQFIVWVTDSLIKNNITFDTVFYRYTTPSGKSTRISIVPDTMNRVLRDMFGYCNLNYYTHKEFISFPTTNISWHQAQAYIHWLNNRMLELLKKNHVPTTDWGKYRLPEALEWEYAAMIVEKNGDWFNQRNPDAYNIYGWLDYPLTTKEGLYKANFGLIRDLNHMVIKARWDDNYDALAPVKKYVPSLMGLYDLSGNVSEWTNTSISLDSLNKFYAGYYSNLLQTKYQHLFEELLKPAPDWKKFDAFKAESVRGRYDAQAQQYWFNEYVIRVKEMENYNRSILSRISDGMLVKGGSWDNPPVYMINTCSQVLSKNFTTPQTGFRVALTLEPAFEKLLGSYLTGEGHHHHHH | not soluble |
| MSLQIKDEILSLLKRGKNLLAFSYGSDSSVLFYLLMQEKIDFDLVMINYKTRKNSDLEELKAKELALKFHKKIFIKHAPKFQSNFEKKARDFRYDFFEKICLEQGYDHLILAHHLNDQFEWFLMQLSRGAGLAEILGMQECEKRSNYTLLRPLLFISKDEISSFLKEKDIFYFHDESNENEKYFRNYIRKNFSNAFVSEFHQGLKRSFSYLDEDRKKLYDFENIKEIQGLLICPKNESLIARAVKMKGLLLSTAQRKELLKGDCVLGGKIALAYKNEQAIVFEYETCQKLPKNFKEECRIAKIPRLLRAYLYNHKIDISSLSEGHHHHHH | soluble |
| MSLQLSKAAEMCYEITNSYLHIDQKSQIIASTQEAIRLTRKYLLSEIFVRWSPLNGEISFSYNGGKDCQVLLLLYLSCLWEYFFIKAQNSQFDFEFQSFPMQRLPTVFIDQEETFPTLENFVLETSERYCLSLYESQRQSGASVNMADAFRDFIKIYPETEAIVIGIRHTDPFGEALKPIQRTDSNWPDFMRLQPLLHWDLTNIWSFLLYSNEPICGLYGKGFTSIGGINNSLPNPHLRKDSNNPALHFEWEIIHAFGKDAEGERSSAINTSPISVVDKERFSKYHDNYYPGWYLVDDTLERAGRIKNEGHHHHHH | soluble |
| MSLQNHDLESIKQAALIEYEVREQGSSDVLDSNISKEPLEFIIGANQIIVGLEKAVLKAQIGEWEEIVIAPEEAYGVYESGYLQEVPRDQFEGIELEKGMSVFGQTEDNQTIQATIKDFSNTHVMVDYNHPLAGKTLAFRFKVLGFREVSEEEILASHHDSGTGCCGGHGGHGGKKGGGCGCSCSHGEGGSHHHHHH | soluble |
| MSLQNTLGHRLVVGERQLLRFPAQQRSAAGDRLHAPSVYRRACIASLRSRQACYRHARRRCRQQEGAAMTGINRRELLRGMLASGVRAALPAGAAGALLPGSADAAPAAAKDATPLAPLGDASLAPRERLLFDFGWRFHPGHASDPSRDFEFGTFQRTFAKAGKDTATAAQLAFDDSNWQQVDLPHDWAVTLPFRPEPISASMTEEDPAAAHGYKALGTSFPENSVGWYRRMLQIPASDLGKRICLVFDGVFRDCVVFCNGHIVGRNASGYCGFEVDLSEVLDYGKPNLIVVRVDATLGEGWFYEGAGIYRHLWLQKTDPLHVPQHGVFVRSSVQGDTATAQLSTEVRNDGTASRQCVVQARITAPYGRIVAQAASAAVTVAPGQVQVVEQTVPLGQAALWSIDTPQLYTLTTSVHSAGVAVDALVTPFGVRSIAFDAQRGFLLNGAPLKLHGTNNHQDHAGVGTAIPDALHAWRLRQLKSMGCNAYRSSHNPATPELLALCDRLGMFVIEETRRMSTDPEAMAELETMVRRGRNHPSVILWSLGNEEPQQVTERGARIVTRMQQRVRQLDPTRPTTFAMDKGFGDGVGQVVDVVGFNYRTSQMDGFHAQYPNIPIYGSETGSTVSVRGNYQRDDTRGYTRAYDTDHPWWASTAEAWWSYVAQRPYIAGGFIWTGFDYRGEPTPYNRWPNVGSQFGVLDSCGFPKDNYWYYRAQWTSEPVLHLFPHWNWDGLLQPDDKGRVEVWCHSNLEAVELLVNGVSQGLQQVPAYGHVEWRVAYAPGVIEARGYRGGKLVLTERRETVGKPAAIRLSCDRSALRADAEDVAVVKVEIVDAQGRLVPNADHLVHLVLRGPARLIGVGNGDPSSHEDDKAPQRKAFNGLCMALLRSTRSSGQILLQATAPGLTSAALHLQAATSAEGHHHHHH | soluble |
| MSLQRESLDILKLSQAIKKCDAILIGAGAGLSSAAGLSYSGNRFKKYFNDFITKYHLQDMYSAGFYPYPSLEKYWAYWSRHIYYNRYLEAPKDTYKKLLNLLINKDYFVITTNVDHQFQIAGFIKEKLFYTQGDYGLWQCSKPCHQKTYDNYETVVTMIKQQHDLKIPSSLIPYCPICNAPMTMNLRCDKTFVQDSGWYHAQERYYHFLNKYHYSKIVYLELGVGYNTPGIIKYPFWQLTIENPKAIYACINQDIIDLPSELKKQTIMINDNIHNVLSSLEKLLEGHHHHHH | soluble |
| MSLQSSIYRIRHLAKPAYREEFKGDIECSTAAYKEVLEDTSTDSTSKLPLEAKFGKMSIIKLVLLLIISTIIYANDKNISNLHITSDSLIIDRTKQKAAYLGNVIVYFDNAILRTKELYIFYKTIDEKQTIDHIVVPTKLTVERKINNELLLADSAKYFCDNKQLILLGNVILQRDDNVLKTNKLIYYVDIIKK | not soluble |
| MSLQTPMQTVDDLRSVCDELPHSLETFPFDDETLVFKVGYLSKSRMYALTDITQDPLRLSLKVDPERGEELRQAHPQSIAPGYHLNKKHWVTVTLDGTVPAELLGELLRGSYLLVTKKGFTKAERKELGLPDSLEGGSHHHHHH | soluble |
| MSLQVSLNPEWLARNNDEHKIRRNDHRSPFQRDRARILHSAAFRRLQAKTQVHGTSLNDFHRTRLTHSLEAAQIGTGIVAQIKLKQPEFRELLPSDSLIDSLCLAHDIGHPPYGHGGEIALNYMMRDHGGFEGNAQTFRIVTSLEPYTEHHGMNLSRRTLLGLLKYPALLSATRAAIPPPAVAHQRQLKAKDWSPAKGIYDCDLASLDWVLEPLCESDRELLGQMRAEPSSPKEHRKTRFKSLDCSIMELADDIAYGVHDLEDAIVLGMVTRAQWQEAAAAQLAECGDPWFEEHIAELSEMLFSGKHYVRKDAIGGIVNALLTSISVKPVEAPFHNELLAFNAYIEPHMGNALEVLKHFVSQYVIQIPQVQRFEYKGQQLIMDLFEALSADPERLLPQATGEKWRKAQEQDEGMRVICDYIAAMTDAYAQRLHQQLFSAQSHYEGGSHHHHHH | soluble |
| MSLRDKKGPVNKRVDFLSNKLNKYSIRKFTVGTASILIGSLMYLGTQQEAEAAENNIENPTTLKDNVQSKEVKIEEVTNKDTAPQGVEAKSEVTSNKDTIEHEASVKAEDISKKEDTPKEVANVAEVQPKSSVTHNAEAPKVRKARSVDEGSFDITRDSKNVVESTPITIQGKEHFEGYGSVDIQKNPTDLGVSEVTRFNVGNESNGLIGALQLKNKIDFSKDFNFKVRVANNHQSNTTGADGWGFLFSKGNAEEYLTNGGILGDKGLVNSGGFKIDTGYIYTSSMDKTEKQAGQGYRGYGAFVKNDSSGNSQMVGENIDKSKTNFLNYADNSTNTSDGKFHGQRLNDVILTYVASTGKMRAEYAGKTWETSITDLGLSKNQAYNFLITSSQRWGLNQGINANGWMRTDLKGSEFTFTPEAPKTITELEKKLKRFHSRKNVNLIRIEGHHHHHH | not soluble |
| MSLRDKQKIKTKLIPEKDEGEGKYRIGLYIRDSAAGIGTMTFYEPKTKKYGALGHVISDMDTKKPIVVENGEIVKSTVTSIEKGTGGNPGEKLARFSSERKTIGDINRNSPFGIFGTLHQPIQNNISDQALPVAFSTEVKKGPAEILTVIDDDKVEKFDIEIVSTTPQKFPATKGMVLKITDPRLLKETGGIVQGMSGSPIIQNGKVIGAVTHVFVNDPTSGYGVHIEWMLSEAGIDIYGKEKASEGHHHHHH | soluble |
| MSLREYIKEGIKLAVTNIPEDVVSAIREALEREESKIAKYNLEMILKAIDISRKEGIPVCQDTGTPIFFVRTNGPINKIYDEIVKGVEIATREVPLRPNALHVLDGKVIGNVPEVHFEPGKETLISILMKGGGSENCTALFPLTPAEGLEGVKNKVIEHVQSCGGKPCPPIIVGIGIASPAEKAIILAKKALLRRISERHPNEKLAKFERELLEEINSLGIGPMGLGGRTTALDVKVEVETRHPASYIVGVVIQCWAHRRAFIKVSEGGVKIWQEGGSHHHHHH | soluble |
| MSLRFIDKLYQANLGKLTAGISPAALGTAYYSWFAQLLQSPGSMLRLAYYPLLHANDYLSNLFKYDKPRDGKDVRFHTENWSYYPWRLWAEQFLQFEDWCLQASSKVPGIPLHVKRTVTFSTRQILDALSPSNFVLTNPDLLQETIRSNGQNLIRGTELAFQDFVEKITGSPPAGVENFIPGKQVAVTEGKVVYSNHLIELIQYTPQTEKVYKEPILILPAWIMKYYILDLLPENSLVNWLVRQGHTVFIVSWRNPTKEDRNIGLDDYYKLGAMDAINAVSNAIPHTKIHLMGYCLGGTLALLTAAAMAHDHDNRLKTLSLLAAQGDFIDAGELLLFITKSEVSFLKSMMWEQGYLDTKQMSGTFQMLRSYDLIWSKMVQDYMHGTQRGMIPLLAWNADATRMPYKMHSEYLEKLFLNNDFAEGRFILDGKPVVGENIRMPAFVVSTEKDHVAPWKSVYKTHLLINSDITFVLTNGGHNAGIVSEPGHEGRYYRIRERKMDSTYLDPTNWLKKAELREGSWWIAWHDWLVNHSSQKQVSAPKLDKNLPNAPGKYVLQKEGHHHHHH | not soluble |
| MSLRIGVAGVGKLGEFHTNLLKQIAAEASDVEFSGVFDLNPERLQEIGKKYGVACFSTLEELAASCDAAVIATTTSSHYAIARQLLEARLHLFIEKPITATLEEADKLIRIEQEKGLTIQVGHIERFNPALLAVEPYIGEPMYIQAERLSGFSRRVTDVSVVLDLMIHDIDLVLSLIKSDIRSIAASGVKVFSNELDMATARIEFENGAIANVTASRLSRSKLRKMRFFTRNPKSYASLDFTSGKSEVFRLVPPDQLSSKNPIKNFATKKILEQFGEIQESLKEMALDYVSPDVPKINALKEELEQFIDAIRKGKPAKVTSEEGRRALMVAGKITDEIRNNTADLDEGHHHHHH | soluble |
